From the nanobody polyreactivity screen of Harvey et al. (2022)

Assay: yeast display, Sf9 membrane polyspecificity reagent, FACS + sequencing; frameworks hold sequencing errors
In short: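 Nanobodies from a synthetic yeast display library (Saccharomyces cerevisiae BJ5465), induced 36–48 hours with galactose, were stained 1 hour at 4 °C with 10% biotinylated, detergent-solubilized Sf9 membrane reagent, enriched on streptavidin microbeads, then FACS-sorted. Anti-HA (expression) and streptavidin (reagent binding) fluorescence set low and high (top ~1%) gates. Polyreactivity labels come from the gate of origin. Genes were colony-PCR amplified, MiSeq 2 × 250 sequenced and filtered by CDR length.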

Sequence	polyreactivity (PSR sort gate)
QVQLVESGGGLVQAGGSLRLSCAASGFTFPAYTMGWYRQAPGKERELVSAITSSGGNTYYADSVKGRFTISRDNAKNTVYLQMNSLKPEDTAVYYCSTVSVRGPSYDHVRYDYWGQGTQVTVSS	low polyreactivity
QVQLQESGGGLVQAGGSLRLSCAASGTISTDSYMGWYRQAPGKERKFVASIGYGGITYYADSVKGRSTISRDSAKNTVYLQMNSLKPEDTAVYYCAVNSYYPDHYWYWGRGTQVTVSS	high polyreactivity
QGQLVESGGGLVQAGGSLRLSCAASGRIFRIYAMGWYRQAPGKERELVARITYSGGSTYYADSVKGRFTISRDNAKNTVYLQMNSLKPEDTAVYYCAADWLGYQYGYWGQGTQVTVSW	low polyreactivity
QVQLVESGGGLVQAGGSLRLSCAASGRIFSRNAMGWYRQAPGKERELVAGISARGGRTYYADSVKGRFTNSRDNAKNTVYLQMNSLKPEDTAVYYCAASFSAIRGGVRVTIDYYWGQGTQVTVSS	high polyreactivity
QVQLVESGGGLVQAGGSLRLSCAASGSTFSKYVMGWYRQATGKERELVAAISGGDRTYYADSVKGRFTISRDNAKNTVYLQMNSLKPEDTAVYYCAAEVLKTRWSYDYWGQGTQVTVSS	high polyreactivity
QVQRVESGGGLVQAGGSLRLTSAGSGLTFILNAMGWYRQAPGKEREFVAAISRSGVRTYYADSVKGRFTISRDNAKNTVYLQMNSLKPEDTAVYYCAAAAQRGSKPRVELDYWGQGSQVTVSS	high polyreactivity
QVQLVESGGGLVQAGGRLRISCAASGSIFEGNGMGWYRQAPGKQREFVAAITNRGGSTYYADSVKGRFTISRDNAKNTVYVQMISLKPEDTAVFYCAADWTTNPDYQQSYFVSYEYNYWGHGTQVTVSS	low polyreactivity
QVQLVESGGGLVQAGGSLSLSCAASGRTFASNAIGWYRQAPGKERELVAAISSAGGTNYADSVKGRFTISRDNAKNTVYLQMISLKPEDTAVYYCAAASPYYSYHRYIYYYWGQGTQVTVSS	high polyreactivity
QVQLVESGGGLVQAGGSLRLSCAASGSTFTAYAMGWYRQAPGKERELVAVITSGGGTFYADSVKGRFTISRDNAKNTVYLQMNSLKPEDTAVYYCNAARTYPGTYIYRYGYWGQGTQVTVSP	high polyreactivity
QVQLVESGGGLVQAGGSLRLSCAASGSIFYSYAMGWYRQAPGKERELVAVITRGGSTNYADSVKGRFTISRDNAKNTVYLQLNSLKPEDTAVYYCNKDRYGKVFRYPPYYRSSPYDYWGQGTQVTVSS	high polyreactivity
QVKLVESGGGLVPAGGSLRLSCAASGNIFVNYAMRWYRQAPGKERELVASINYNGGITYYADSVKGRFTISRDNAKNTVYLQMNSLKPEDTAVYDCDKDGGGLLRWYTDEYDYWGQGTQVTVSS	low polyreactivity
QVQVVESGGGLVQAGGSLRLSCAASGGTFGRYTMGWYRQAPGKERELVAAITYGGGSTYYADSVKGRFTISRDNAKNTVYLQMNSLKPEETAVYYCARRGILRGSRYDYWGQGTQVTVSS	high polyreactivity
QVQLVESGGGLVQAGGILRLSCAASGRTFNGNAMGWYRQAPGKERELVAAISGGSTSYADSVKGRFTISRDNAKNTVYLQMNSLKPEDTAVYYCATDPSEEYDYWGQGNQVTVSS	low polyreactivity
QVQLVESGGGVVQAGGSLRLSCAASGRIFRGYVMGWYRQAPRKERELVAAITWSGANTYYADSVKGRFTISRDNAMNTVYLQMNSLKPEDSAVYYCAATVSYWSTKEDDYWGLGTQVTVSS	low polyreactivity
QVQLVESGGGIVQAGGSLRLSCAASGRTFAYNVMGWYRHAPGKERELVAGISFGAGSTYYADSVKGRFTISRDNAKNTVYLQMNSLKPEDTAVYYCATRRRGTRYPRGYDYWGQGTQVTVSS	high polyreactivity
QVQIVESGGGLVQAGGSLRLSCAASGTFARYAMGWYRQAPRKERELVAAITRRGGNTYYADSVKGRFSISRDNAKNTVYLPMNSQKPEDTAVYYCAILGEDTNGYWGQGTQVTVSS	high polyreactivity
QVQLVESGGGLVQAGGSLRLSCAASGFIFSLYAMGWYRQAPGKERELVAAISKRGGSTNYADSVKGRFTISRDNAKNTVYLQMNSLKPEDTAVYYCAKARPGFLYDHWGQGTQVTVSS	high polyreactivity
QVQLVESGGGLVQAGGSLRLSCAASGFTFDWYAMGWSRQAPGKERELVAAISSSGTSRYYADSVKGRFTISRDNAKNTVYLQMNSLKPEDTAVYYCAARWYYVTPLRRYGYWGQGTQVTVSS	high polyreactivity
QDQLVESGGGLVQAGGSLRLSCAASGFIFLNYTMGWYRQAPGKERELVAAISNGSDRTYYADSVKGRFTISRDKAKNTVYLQMNSLTPEDTAVYYCAKDRDFSSPPTESGFDYWGQGTQVTVSS	low polyreactivity
QVQLVESCGVLVQAGGSLRLSCDASGSIFVWNAMGWYREAPGKERELVAAIRSDDDSTYYADSVKGLFTISRDNAKNTVYLQMNCLNPEDTAVINALVDSPTFSHVKPWDGGDYWGQGTQVTVSS	low polyreactivity
QVQLVESGGGLVQAGGSLRLSCAASGFIFYSNAMGWYRQEPGKERELVAAITSGGGSTYYADSVKGRFTISRDNAKNTVYLQMNSLKPEDTAVYYCAVSIGRYPYRYGYWGQGTQVTVSS	high polyreactivity
QVELVYSGGGLVQAGGSLRLSCPASGSTFWYYAMGWSRQPPGKERELVAAINSGGSTFYADSVKGRFTISRDNAKNTVYLQMNSLKPEDTAVYYCAKRSYDYRRYYWGQGTQVTVSS	high polyreactivity

Sequence	polyreactivity (PSR sort gate)
QVQLVESGGGLVQAGGSLRLSCAASGLILVYYAMGWYRQAPGKERELVAAITPGGSTKYADSVKGRFTISRDNAKNTVYFQMNSLKPEDTAVYYCAVDGDWHEPGNYIYEYDYWGQGTQVTVSS	low polyreactivity
QVQLVESGGGLVQAGGSIRLSCAASGSISPQNVMGWYRQAHGKERELVAAITGGGSTNYADSVKGRFTISRDNAKNTVYLQMNSLIPEDTAVYYCAADGRYAYGYNHWGQGTQVTVSS	low polyreactivity
QVQLVESGGGLVQAGGSLRLSCAASGSTFRYYDRGWYRQAPGKERELVAAITTSGDDTYYADSVKRRFTISRDNAKTTVYLQMNSLKPEDTAVYYCAADGYGGHKYELESWGQGTQVTVSS	low polyreactivity
QVQLVESGGGIVQAGGSLRLSCAASGSIFVHNDMGWYRQAPGKERELVARINTGGGTNYADSVKGRFTISRDNAKNTVYLEMNSLKPEDTAVYYCATDGDRYDHYFTDPEFDYWGQGTQVTVSS	low polyreactivity
QVQLVESGGGLVQAGGSLRLSCAASGSIFYSYAMGWYRQAPGKERELVAAISTTGGSTYYADSVKGRFTISRDNAKNTVYLQMNSLKPEDTAVYYCAREQGFRGDWYDYWGQGTQVTVSS	high polyreactivity
QVQLVESGGGLVQAGGSLRLSCAASGSNYGFYAMGWYRKAPGKERELVAVISSDGSTNYADSVKGRFTISRDNAKNTVYLQMNSLKPEDTAVYYCAADWSITYGDGGYWGQGTQVTVSS	low polyreactivity
QVQLVESGGGLGQAGGSLRLSCAASGRIFRGYAMGWYRQAPGTDRELVATISAIGGSTYADSVKGRFTIARDNAKNTVYLQMNSLKPEDTAVYYCNKVHFRPRYFLRSDYWGQGTQGTVSS	high polyreactivity
QVQLVESGGGLVQAGGSLRLSCAASGSTFRYYGMGWYRQAPGKERELVAAISNGDSTNYADSVKGRFTISRDNAKNTVYLQMNSLKPEDTAVYYCATERYSYRVYGGITTFEYWGQGSQVTVSS	high polyreactivity
RVQLVESGGGLVQAGGSLRLSCAASGFTIQRYAMGWYRQAPGKVRELVAGITGGGNTKYADSVKGRFTISRDNAKNTVYLQMNSLKPEDTAVYYCAARGGVPRGKFGYDYWGQGTQVTVSS	high polyreactivity
QVQLVESGGGLVQAGGSLRLSCAASGITFSFYAMGWYRQAPAKERELVATIDSGGSTNYADSVKWRFTISRDNAKNTVYLQMNSLKPEYTAVYYCAADGVWYYYDMDYWGQGTQVTVSS	low polyreactivity
QVQLVESGGGLVQAGGSLRLSCAASGSTFTSYTMGWYRQAPGKERELVARNTRGGGSTYYADSVKGRFTISRDNAKNTVYLQMNSLKPEDTAVYYCAKQVVGRAYYSWGQGTQVTVSS	low polyreactivity
QVQLVESGGGLVQAGGSLRLSCAASGITFRRYTMGWYRQAPGKEWELVATISLSDGNTYYADSVKGRFTISRDNAKTTVYLQMNSLKPEDTAGYYCNARHTWHQTYDYWGQGTQVTVSS	low polyreactivity
QVQLVVSGGGLVQAGGTLRLSCAASGSILSDNGMGWYRQAPGKERELVASIRTGDITKYADCVKGRFTISRDNAKNTVDLQMTSLKPEDTAVYYCAAAGRVQYTRKYYGWRNRNDYWGQGTQVTVSS	low polyreactivity
QVQLVETGGGLVQAGGSLRLSCAPSGRIFTYYGMGWYRQPPGKERELVAAITRSGGSTRYADSVKGRFTISRDNAKNTVYLQMNSLKPEDTAVYYCNAGGYWRYDYWGQGTQVTVSS	high polyreactivity
QVQLVESGGGLVQAGGSLRLSCAASGSIFIYYAMGWYRQAPGKERELVAAISFSGARTYYADSVKGRFTISRDNAKNTVFLQMNSLKPEDTAVYYCNVEIGTGDYDYWGQGTQVTVSS	low polyreactivity
QVQLVESGGGLVQAGGSLRLSCAASGSIVNIYAMGWYRQAPGKERQLVARISCSGVSTYYADSVKGRLTISRDHAKNTVYLQMNSLKREDTAVYDCAARYGRVYYYGWYWLYYWGQGTQVTVSS	high polyreactivity
QVQLVESGGGLVQAGGSLRLSCAASGRTFSTYTMGWYRPAPGNERELVAAINWSGTSTYYADSVKGRFTISRDTAKNTVYLQMNSLKPEDTAFYYCNAGKWAYRWGYELNYWGQGTQVTVSS	high polyreactivity
QVQLVESGGGLVQAGGSLRLSCAASGSIFPYYAMGWYRQAPGKERELVAAITGAGSTNYADSVKGRFTISRDNAKNTVYLQMNSLKPEDTAVYYCAADFGSPDKWRDWYDYWGQGTQVTVSS	low polyreactivity
HVELVDSGGGLVQAGGSLRLSCAASGSIFTDNTRGWFRQAPAKDRELVASISSGGRTYYADSVKGRFTISRDNAKNTVYLQMNSLKPEDTAVSYCAVSCWWKHNYWGQGTQVTVSS	high polyreactivity
QVQLVESGGGLVQAGGSLRLSCAASGSIFFWNDMGWYRQAPGTERELVAAISWSGGSTSYADSVKGRFTISRDNAKNTVYLQMNSLKPEDTAVYYCAADYYYRTLYGYIGMDYWGQGTQVTVSS	low polyreactivity
QVQLVESGGGLVQAGGSLRLSCAASGSIFYRYAMGWYRPAPGKERELVAAISSTGSTYYADSVKGRFTISRDNAKNTVYLQMNSLKPEDTAVYYCAARQGFRSYRRYDYWGQGTQVTVSS	high polyreactivity
